Measurements reported in the Immune Epitope Database (IEDB).

Legend:
HLA-A*11:01 = assay: IEDB peptide-MHC binding, purified MHC/direct/fluorescence; filed as Kd, often an IC50 or EC50 that approximates it; ≥ and ≤ were set here for values at or beyond the usual limits of such assays
HLA-B*08:01 = assay: as above; conditions: source organism: Haemophilus influenzae
HLA-A*69:01 = assay: as above
HLA-B*15:01 = assay: as above
HLA-A*31:01 = assay: as above
HLA-B*27:05 = assay: as above
HLA-A*03:01 = assay: as above
HLA-B*07:02 = assay: as above
HLA-B*58:01 [1] = assay: as above
HLA-A*01:01 = assay: as above
HLA-A*26:01 = assay: as above
HLA-B*35:01 = assay: as above
HLA-A*02:01 = assay: as above
HLA-C*12:03 = assay: as above; conditions: source organism: Yersinia pestis Nepal516
HLA-B*44:02 = assay: as above; conditions: source organism: Haemophilus influenzae
HLA-B*48:01 = assay: as above; conditions: source organism: Giardia intestinalis
HLA-B*18:01 = assay: as above
HLA-B*15:17 = assay: as above
HLA-B*57:01 [2] = assay: as above
HLA-B*40:01 = assay: as above; conditions: source organism: Giardia intestinalis
HLA-B*46:01 = assay: as above
HLA-A*68:02 = assay: as above
HLA-B*08:03 = assay: as above
HLA-B*57:01 [3] = assay: IEDB peptide-MHC binding, purified MHC/competitive/radioactivity; filed as Kd, often an IC50 or EC50 that approximates it; ≥ and ≤ were set here for values at or beyond the usual limits of such assays
HLA-B*58:01 [4] = assay: as above
HLA-A*29:02 = assay: IEDB peptide-MHC binding, purified MHC/direct/fluorescence; filed as Kd, often an IC50 or EC50 that approximates it; ≥ and ≤ were set here for values at or beyond the usual limits of such assays; conditions: source organism: Giardia lamblia ATCC 50803
HLA-B*27:03 = assay: as above
HLA-B*39:01 = assay: as above
HLA-A*24:03 = assay: as above
HLA-B*51:01 = assay: as above
HLA-A*02:03 = assay: as above
HLA-A*02:11 = assay: as above
HLA-A*02:12 = assay: as above
HLA-A*02:16 = assay: as above; conditions: source organism: Vibrio vulnificus CMCP6
HLA-A*02:19 = assay: as above
HLA-A*02:06 = assay: IEDB peptide-MHC binding, purified MHC/competitive/fluorescence; filed as Kd, often an IC50 or EC50 that approximates it; ≥ and ≤ were set here for values at or beyond the usual limits of such assays; conditions: source organism: Francisella tularensis subsp. tularensis FSC198
HLA-B*15:09 = assay: IEDB peptide-MHC binding, purified MHC/direct/fluorescence; filed as Kd, often an IC50 or EC50 that approximates it; ≥ and ≤ were set here for values at or beyond the usual limits of such assays; conditions: source organism: Francisella tularensis subsp. tularensis FSC033
HLA-B*08:02 = assay: as above; conditions: source organism: Francisella tularensis subsp. tularensis FSC033
[5] = source organism: Haemophilus influenzae
[6] = source organism: Vibrio vulnificus
[7] = source organism: Giardia intestinalis
[8] = source organism: Giardia lamblia ATCC 50803
[9] = source organism: Dengue virus 3 Martinique/1243/1999
[10] = source organism: Dengue virus 2 Jamaica/1409/1983
[11] = source organism: Dengue virus 4 Philippines/H241/1956
[12] = source organism: Vibrio vulnificus CMCP6
[13] = source organism: Francisella tularensis subsp. tularensis
[14] = source organism: Campylobacter jejuni

Sequence IMDEPTSSL has a Kd (HLA-A*11:01; [5]) of at least 20 µM, a Kd (HLA-B*08:01) of at least 20 µM and a Kd (HLA-A*69:01; [6]) of 0.0649 µM. It also gave a Kd (HLA-B*15:01; [6]) of 0.173 µM, a Kd (HLA-A*31:01; [5]) of at least 20 µM and a Kd (HLA-B*27:05; [5]) of at least 20 µM. For the same sequence, the Kd (HLA-A*03:01; [5]) was at least 20 µM, the Kd (HLA-B*07:02; [6]) was at least 5 µM and the Kd (HLA-B*58:01 [1]; [5]) was at least 20 µM. It also gave a Kd (HLA-A*01:01; [6]) of 14.3 µM, a Kd (HLA-A*26:01; [5]) of at least 20 µM and a Kd (HLA-B*35:01; [6]) of 2.07 µM. For the same sequence, the Kd (HLA-A*02:01; [6]) was 0.0267 µM, the Kd (HLA-C*12:03) was at least 20 µM and the Kd (HLA-B*44:02) was at least 20 µM.
INTLESMMK gave a Kd (HLA-A*11:01; [7]) of 12 µM, a Kd (HLA-B*48:01) of at least 20 µM and a Kd (HLA-B*18:01; [7]) of at least 20 µM. For the same sequence, the Kd (HLA-B*15:17; [7]) was at least 20 µM, the Kd (HLA-B*15:01; [7]) was at least 20 µM and the Kd (HLA-B*57:01 [2]; [7]) was at least 20 µM. For the same sequence, the Kd (HLA-A*31:01; [7]) was at least 20 µM, the Kd (HLA-B*27:05; [7]) was at least 20 µM and the Kd (HLA-A*03:01; [7]) was at least 20 µM. The Kd (HLA-B*40:01) was at least 20 µM, the Kd (HLA-B*07:02; [7]) was at least 20 µM and the Kd (HLA-B*58:01 [1]; [7]) was at least 20 µM. It also gave a Kd (HLA-A*01:01; [7]) of at least 20 µM, a Kd (HLA-B*46:01; [7]) of at least 20 µM and a Kd (HLA-A*68:02; [7]) of at least 20 µM. For the same sequence, the Kd (HLA-A*02:01; [7]) was at least 20 µM and the Kd (HLA-B*08:03; [8]) was at least 20 µM.
Sequence KAWMVHRQW has a Kd (HLA-B*57:01 [3]; [9]) of 0.00127 µM and a Kd (HLA-B*58:01 [4]; [9]) of 0.00108 µM.
With KTRANDWDF the Kd (HLA-B*57:01 [3]; [10]) was 0.0221 µM.
With LLIQGLKTV the Kd (HLA-A*29:02) was at least 20 µM, the Kd (HLA-B*18:01; [8]) was at least 20 µM and the Kd (HLA-B*15:17; [8]) was at least 20 µM. It also gave a Kd (HLA-B*27:03; [8]) of at least 20 µM, a Kd (HLA-B*57:01 [2]; [8]) of at least 20 µM and a Kd (HLA-A*03:01; [8]) of at least 20 µM. It also gave a Kd (HLA-B*39:01; [8]) of at least 20 µM, a Kd (HLA-B*46:01; [8]) of at least 20 µM and a Kd (HLA-A*24:03; [8]) of at least 20 µM. The Kd (HLA-A*26:01; [8]) was at least 20 µM, the Kd (HLA-A*02:01; [8]) was 0.002 µM and the Kd (HLA-B*51:01; [8]) was at least 20 µM.
In the case of LSSRATWAKN, the Kd (HLA-B*57:01 [3]; [11]) is reported as 1.88 µM and the Kd (HLA-B*58:01 [4]; [11]) is reported as 0.156 µM.
With MPIAAAIGT the Kd (HLA-A*02:03; [12]) was at least 20 µM, the Kd (HLA-A*02:11; [12]) was at least 20 µM and the Kd (HLA-B*18:01; [12]) was at least 20 µM. For the same sequence, the Kd (HLA-B*15:01; [12]) was at least 20 µM, the Kd (HLA-B*27:03; [12]) was at least 20 µM and the Kd (HLA-B*57:01 [2]; [12]) was at least 20 µM. It also gave a Kd (HLA-A*03:01; [12]) of at least 20 µM, a Kd (HLA-B*07:02; [12]) of 1 µM and a Kd (HLA-A*02:12; [12]) of at least 20 µM. The Kd (HLA-B*46:01; [12]) was at least 20 µM, the Kd (HLA-A*24:03; [12]) was at least 20 µM and the Kd (HLA-A*26:01; [12]) was at least 20 µM. It also gave a Kd (HLA-B*35:01; [12]) of 0.003 µM, a Kd (HLA-A*02:01; [12]) of at least 20 µM and a Kd (HLA-A*02:16) of at least 20 µM. For the same sequence, the Kd (HLA-A*02:19; [12]) was at least 20 µM.
PPPPLQHPI was tested, and the Kd (HLA-B*18:01; [8]) was at least 20 µM, the Kd (HLA-B*15:17; [8]) was at least 20 µM and the Kd (HLA-B*15:01; [8]) was at least 20 µM. The Kd (HLA-B*27:03; [8]) was at least 20 µM, the Kd (HLA-B*57:01 [2]; [8]) was at least 20 µM and the Kd (HLA-A*03:01; [8]) was at least 20 µM. The Kd (HLA-B*39:01; [8]) was at least 20 µM, the Kd (HLA-B*46:01; [8]) was at least 20 µM and the Kd (HLA-A*24:03; [8]) was at least 20 µM. For the same sequence, the Kd (HLA-A*26:01; [8]) was at least 20 µM and the Kd (HLA-B*51:01; [8]) was at least 5 µM.
In the case of RYSNFAWYF, the Kd (HLA-A*02:06) is reported as at least 20 µM, the Kd (HLA-A*11:01; [13]) is reported as at least 20 µM and the Kd (HLA-B*15:09) is reported as at least 20 µM. The Kd (HLA-B*18:01; [13]) was at least 20 µM, the Kd (HLA-B*15:17; [13]) was at least 20 µM and the Kd (HLA-A*69:01; [13]) was at least 20 µM. The Kd (HLA-B*15:01; [13]) was at least 20 µM, the Kd (HLA-B*57:01 [2]; [13]) was at least 20 µM and the Kd (HLA-B*07:02; [13]) was at least 20 µM. The Kd (HLA-B*58:01 [1]; [13]) was at least 20 µM, the Kd (HLA-A*01:01; [13]) was at least 20 µM and the Kd (HLA-B*08:02) was at least 20 µM. For the same sequence, the Kd (HLA-A*24:03; [13]) was 0.365 µM, the Kd (HLA-A*68:02; [13]) was at least 20 µM and the Kd (HLA-A*02:01; [13]) was at least 20 µM. For the same sequence, the Kd (HLA-B*08:03; source organism: Francisella tularensis subsp. tularensis FSC033) was at least 20 µM.
SFWFFHPPY gave a Kd (HLA-A*02:03; [14]) of at least 20 µM, a Kd (HLA-A*02:11; [14]) of at least 20 µM and a Kd (HLA-A*69:01; [14]) of at least 20 µM. For the same sequence, the Kd (HLA-B*15:01; [14]) was 4.99 µM, the Kd (HLA-B*27:03; [14]) was at least 20 µM and the Kd (HLA-B*57:01 [2]; [14]) was at least 20 µM. For the same sequence, the Kd (HLA-A*03:01; [14]) was at least 20 µM, the Kd (HLA-B*07:02; [14]) was at least 20 µM and the Kd (HLA-A*02:12; [14]) was at least 20 µM. It also gave a Kd (HLA-B*39:01; [14]) of at least 20 µM, a Kd (HLA-B*46:01; [14]) of at least 20 µM and a Kd (HLA-A*68:02; [14]) of at least 20 µM. The Kd (HLA-A*26:01; [14]) was at least 20 µM, the Kd (HLA-B*35:01; [14]) was 0.351 µM and the Kd (HLA-B*51:01; [14]) was at least 20 µM. For the same sequence, the Kd (HLA-A*02:19; [14]) was at least 20 µM.
With TASGINMCTL the Kd (HLA-B*57:01 [3]; [9]) was 5.59 µM and the Kd (HLA-B*58:01 [4]; [9]) was 0.103 µM.
TTEDMLAVW showed a Kd (HLA-B*57:01 [3]; [10]) of 0.0301 µM.
